Measurements published in patent US20240301429A1 (RSEM LIMITED PARTNERSHIP, published 2024).

Key:
Assay in all cases: saturation binding, trap coated on plate, SEMA3A-FC titrated, anti-human IgG-HRP chemiluminescence
NRP1 trap AC = target: T1, NRP1 trap AC (human, UniProt O14786 22-856)
T1 construct: a1a2-b1b2-c with D320K (held in the entry); Signal peptide not trimmed
T1 sequence: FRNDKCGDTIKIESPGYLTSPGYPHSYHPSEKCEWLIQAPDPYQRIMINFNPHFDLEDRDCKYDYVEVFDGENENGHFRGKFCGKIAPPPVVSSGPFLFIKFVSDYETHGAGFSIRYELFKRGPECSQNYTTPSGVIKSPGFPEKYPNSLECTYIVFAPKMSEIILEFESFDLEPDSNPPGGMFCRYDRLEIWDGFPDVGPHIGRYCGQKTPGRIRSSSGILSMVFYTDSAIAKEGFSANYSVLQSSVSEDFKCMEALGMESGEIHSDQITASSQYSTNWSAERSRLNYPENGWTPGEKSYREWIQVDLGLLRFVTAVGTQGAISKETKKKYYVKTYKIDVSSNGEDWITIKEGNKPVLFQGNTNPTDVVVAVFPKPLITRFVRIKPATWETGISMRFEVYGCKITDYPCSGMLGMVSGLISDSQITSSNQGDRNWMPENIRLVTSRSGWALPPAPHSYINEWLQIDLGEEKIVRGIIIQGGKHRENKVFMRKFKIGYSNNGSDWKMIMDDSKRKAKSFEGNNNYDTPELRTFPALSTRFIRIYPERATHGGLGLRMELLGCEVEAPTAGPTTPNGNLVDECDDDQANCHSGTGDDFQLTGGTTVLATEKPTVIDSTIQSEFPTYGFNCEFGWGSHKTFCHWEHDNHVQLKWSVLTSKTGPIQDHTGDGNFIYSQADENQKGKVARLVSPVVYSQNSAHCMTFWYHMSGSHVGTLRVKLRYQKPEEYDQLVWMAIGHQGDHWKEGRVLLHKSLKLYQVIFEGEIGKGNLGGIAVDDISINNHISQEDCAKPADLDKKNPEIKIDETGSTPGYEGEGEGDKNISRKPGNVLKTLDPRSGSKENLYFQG
Description: (§1) Sema 3A and AP-VEGF₁₆₅ binding assays. Saturation curves for the determinations of KD of binding to SEMA 3A or VEGF165 were obtained as follow. Wells of high protein binding 96 well plates (Maxisorp, Nunc) were coated with purified traps diluted in PBS and blocked afterward with binding buffer (PBS containing 2% casein and 0.05% Tween 20). The SEMA3A-FC (R&D systems) or AP-VEGF165 ligands were diluted in binding buffer over an extensive range of concentrations and added to wells. Following an overnight incubation, wells were washed with PBS containing 0.05% tween. Bound SEMA3a-FC was detected using an HRP-linked anti-Human IgG (Biorad) and ECL substrate (Pierce). Alternatively, bound AP-VEGF165 was detected using CPD star substrate (Roche). The Chemiluminescent signal was acquired on a TECAN reader. Dissociation constant (KD) were determined by non-linear curve fitting using the Graph Pad prism software.

NRP1 trap G = target: T2, NRP1 trap G (human, UniProt O14786 22-856)
T2 construct: a1a2-b1b2-c; The mature trap lacks the signal peptide (about aa 1-21, may vary)
T2 sequence: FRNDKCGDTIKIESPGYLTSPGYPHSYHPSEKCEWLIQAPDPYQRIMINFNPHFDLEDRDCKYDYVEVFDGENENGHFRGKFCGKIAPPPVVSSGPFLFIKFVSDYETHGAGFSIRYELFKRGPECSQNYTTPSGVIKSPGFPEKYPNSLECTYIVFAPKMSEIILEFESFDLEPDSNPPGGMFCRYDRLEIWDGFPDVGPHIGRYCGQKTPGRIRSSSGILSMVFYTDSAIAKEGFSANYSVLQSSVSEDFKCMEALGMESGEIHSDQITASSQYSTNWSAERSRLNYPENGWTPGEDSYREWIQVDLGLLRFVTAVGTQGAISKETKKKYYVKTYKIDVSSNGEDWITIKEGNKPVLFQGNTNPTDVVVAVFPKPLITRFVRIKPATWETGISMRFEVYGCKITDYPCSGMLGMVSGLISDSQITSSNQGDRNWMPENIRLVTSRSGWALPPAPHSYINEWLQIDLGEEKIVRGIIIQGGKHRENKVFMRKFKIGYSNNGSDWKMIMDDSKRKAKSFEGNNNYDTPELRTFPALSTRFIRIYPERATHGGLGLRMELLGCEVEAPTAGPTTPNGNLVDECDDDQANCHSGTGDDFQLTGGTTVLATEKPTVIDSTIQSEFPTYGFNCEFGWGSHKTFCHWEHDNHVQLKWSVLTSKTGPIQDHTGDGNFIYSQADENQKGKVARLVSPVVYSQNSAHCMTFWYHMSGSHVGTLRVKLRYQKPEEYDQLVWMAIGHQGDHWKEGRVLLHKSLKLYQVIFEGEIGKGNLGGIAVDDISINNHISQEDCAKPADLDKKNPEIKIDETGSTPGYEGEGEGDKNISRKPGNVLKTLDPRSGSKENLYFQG
Description: as §1

NRP1 trap R = target: T3, NRP1 trap R (human, UniProt O14786 22-856)
T3 construct: a1a2-b1b2-c with Y297A (the entry is the trap itself, so no substitution is applied)
T3 sequence: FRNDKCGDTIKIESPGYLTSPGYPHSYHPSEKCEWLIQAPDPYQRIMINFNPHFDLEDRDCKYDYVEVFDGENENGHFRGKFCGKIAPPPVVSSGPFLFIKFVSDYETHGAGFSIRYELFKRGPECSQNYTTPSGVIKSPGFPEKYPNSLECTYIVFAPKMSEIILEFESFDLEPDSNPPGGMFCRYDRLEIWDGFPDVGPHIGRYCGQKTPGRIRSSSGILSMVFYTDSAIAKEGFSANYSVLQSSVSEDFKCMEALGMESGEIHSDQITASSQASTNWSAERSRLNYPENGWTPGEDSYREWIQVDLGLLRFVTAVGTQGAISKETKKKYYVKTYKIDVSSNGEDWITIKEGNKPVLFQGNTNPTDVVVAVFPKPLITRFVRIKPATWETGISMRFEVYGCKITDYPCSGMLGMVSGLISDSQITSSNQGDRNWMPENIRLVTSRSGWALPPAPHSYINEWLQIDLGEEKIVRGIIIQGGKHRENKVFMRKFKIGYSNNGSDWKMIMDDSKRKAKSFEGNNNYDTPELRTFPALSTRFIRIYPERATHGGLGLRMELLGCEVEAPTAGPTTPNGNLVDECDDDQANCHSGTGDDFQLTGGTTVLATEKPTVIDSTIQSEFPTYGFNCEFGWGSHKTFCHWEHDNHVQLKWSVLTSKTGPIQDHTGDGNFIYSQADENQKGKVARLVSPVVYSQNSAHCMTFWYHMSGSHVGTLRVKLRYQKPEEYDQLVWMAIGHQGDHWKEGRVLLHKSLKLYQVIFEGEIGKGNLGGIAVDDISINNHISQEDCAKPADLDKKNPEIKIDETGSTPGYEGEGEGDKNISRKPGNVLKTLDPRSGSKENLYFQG
Description: as §1

Kd (NRP1 trap AC): 4 nM
Kd (NRP1 trap G): 0.8 nM
Kd (NRP1 trap R): 6.15 nM
B1: SEMA3A-FC (R&D systems) (Fc fusion)
chain: YQNGKNNVPRLKLSYKEMLESNNVITFNGLANSSSYHTFLLDEERSRLYVGAKDHIFSFDLVNIKDFQKIVWPVSYTRRDECKWAGKDILKECANFIKVLKAYNQTHLYACGTGAFHPICTYIEIGHHPEDNIFKLENSHFENGRGKSPYDPKLLTASLLIDGELYSGTAADFMGRDFAIFRTLGHHHPIRTEQHDSRWLNDPKFISAHLISESDNPEDDKVYFFFRENAIDGEHSGKATHARIGQICKNDFGGHRSLVNKWTTFLKARLICSVPGPNGIDTHFDELQDVFLMNFKDPKNPVVYGVFTTSSNIFKGSAVCMYSMSDVRRVFLGPYAHRDGPNYQWVPYQGRVPYPRPGTCPSKTFGGFDSTKDLPDDVITFARSHPAMYNPVFPMNNRPIVIKTDVNYQFTQIVVDRVDAEDGQYDVMFIGTDVGTVLKVVSIPKETWYDLEEVLLEEMTVFREPTAISAMELSTKQQQLYIGSTAGVAQLPLHRCDIYGKACAECCLARDPYCAWDGSACSRYFPTAKRRTRRQDIRNGDPLTHCSDLHHDNHHGHSPEERIIYGVENSSTFLECSPKSQRALVYWQFQRRNEERKEEIRVDDHIIRTDQGLLLRSLQQKDSGNYLCHAVEHGFIQTLLKVTLEVIDTEHLEELLHKDDDGDGSKTKEMSNSMTPSQKVWYRDFMQLINHPNLNTMDEFCEQVWKRDRKQRRQRPGHTPGNSNKWKHLQENKKGRNRRTHEFERAPRSV
notes: Bought reagent; not shown: Fc portion of the bought fusion, detected with anti-human IgG
